# Source: patent US20030078221
# Tests used:
# Complement C1q = Complement C1q (Homo sapiens?) (UniProt P02745+P02746+P02747); test: filter; settings: MgPBS 37C
# [1] = target: Complement C5 (Homo sapiens) (UniProt P01031+P01031); test: filter; settings: 2'-F pyrimidines
# Chain of Complement C1q (Homo sapiens?) (P02745 23-245, chain 1 of 3): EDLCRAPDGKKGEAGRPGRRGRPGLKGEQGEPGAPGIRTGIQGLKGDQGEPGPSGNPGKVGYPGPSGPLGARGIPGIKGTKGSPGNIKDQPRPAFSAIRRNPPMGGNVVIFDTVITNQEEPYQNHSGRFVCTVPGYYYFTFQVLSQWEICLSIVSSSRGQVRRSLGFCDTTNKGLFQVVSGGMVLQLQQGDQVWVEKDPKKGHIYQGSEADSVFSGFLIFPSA
# Chain of Complement C1q (Homo sapiens?) (P02746 28-253, chain 2 of 3): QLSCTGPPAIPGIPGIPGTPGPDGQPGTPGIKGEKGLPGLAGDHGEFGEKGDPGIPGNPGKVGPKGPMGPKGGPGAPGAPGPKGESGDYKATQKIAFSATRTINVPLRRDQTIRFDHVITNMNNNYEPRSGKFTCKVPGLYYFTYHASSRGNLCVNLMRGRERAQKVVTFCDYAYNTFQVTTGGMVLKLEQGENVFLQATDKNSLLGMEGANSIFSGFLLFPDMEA
# Chain of Complement C1q (Homo sapiens?) (P02747 29-245, chain 3 of 3): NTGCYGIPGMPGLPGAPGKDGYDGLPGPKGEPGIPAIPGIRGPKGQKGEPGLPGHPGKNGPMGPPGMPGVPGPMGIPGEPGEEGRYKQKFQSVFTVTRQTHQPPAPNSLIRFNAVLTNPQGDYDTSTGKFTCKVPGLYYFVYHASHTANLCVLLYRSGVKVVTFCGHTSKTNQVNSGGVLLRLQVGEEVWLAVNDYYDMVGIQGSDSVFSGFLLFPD
sequence,measurement,setting,value
GGGAGGACGAUGCGGNNNNNNNNNNNNNNNNNNNNNNNNNNNNNNNNNNNNNNNNNNNNNNNNNNCAGACGACUCGCCCGA [random 50N7 2'-NH2 RNA pool],Kd,Complement C1q; 2'-NH2 pyrimidines,2300 nM
GGGAGGACGAUGCGGUGUUCAGCAUUCAGNAUCUUCACGUGUCGUCAGACGACUCGCCCGA [G3],Kd,[1]; MgPBS 37C,55 nM
GGGAGGACGAUGCGGNNNNNNNNNNNNNNNNNNNNNNNNNNNNNNCAGACGACUCGCCCGA [random 30N7 2'-F RNA pool],Kd,Complement C1q; 2'-F pyrimidines,2300 nM
same,Kd,"[1]; random pool, likely should be larger",> 1 nM
